Results reported in PMC4650713 (2015).

Molecular target: BaxΔC21 (UniProt Q07812 1-171, C62S | C126S)
Assay: SPR

BaxΔC21, sequence (Q07812 1-171 C62S/C126S): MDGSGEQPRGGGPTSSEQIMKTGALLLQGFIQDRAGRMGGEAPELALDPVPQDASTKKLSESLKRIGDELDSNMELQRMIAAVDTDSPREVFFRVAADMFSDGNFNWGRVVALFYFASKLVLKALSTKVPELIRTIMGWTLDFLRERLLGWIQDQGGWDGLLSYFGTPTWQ

SESQEDIIRNIARHLAQVGDSMDRSIPPGLVNGL [BidBH3 peptide]
IC50: 306 nM

SESQEDIIRNIARHLRQVGDSMDRSIPPGLVNGL [BidBH3 A91R]
IC50: 41 nM
